Test: soluble on expression in E. coli; label from the status in PepcDB or PDB records

Row | Sequence | soluble on expression in E. coli
1 | MRSRVLWGAARWLWPRRAVGPARRPLSSGSPPLEELFARGGPLRTFLERQAGSEAHLKVRRPELLAVIKLLNEKEQELRETEHLLHDENEDLRKLAENEITLCQKEITQLKHQIILLLVPSEETDENDLILEVTAGVGGQEAMLFTSEIFDMYQQYAAFKRWHFETLEYFPSELGGLRHASASIGGSEAYRHMKFEGGVHRVQRVPKTEKQGRVHTSTMTVAILPQPTEINLVINPKDLRIDTKRASGAGGQHVNTTDSAVRIVHLPTGVVSECQQERSQLKNKELAMTKLRAKLYSMHLEEEINKRQNARKIQIGSKGRSEKIRTYNFPQNRVTDHRINKTLHDLETFMQGDYLLDELVQSLKEYADYESLVEIISQKV | soluble
2 | MNHMEILSFPAGPYQTNCYVVLSEESEGRRYASVIDPGLRAKELIDQYCEENRVEVVQVLLTHGHIDHCRDAAALANGWGVALQIHRYDEFFLDKGNGMSEDSRLLFHADAMNLPDSVSYLGDGDEVELGGQRFVVRHAPGHSPGCVLFVGKDFCFSGDVLFKGSIGRTDLAHSDPHAMSNSIKSVVLGLEDSLTILPGHGPATTMRAEKASNPYLRV | not soluble
3 | GPGSMNYEGHLKGHRGWVTSLACPQQAGSYIKVVSTSRDGTAISWKANPDRHSVDSDYGLPNHRLEGHTGFVSCVSLAHATDYALTASWDRSIRMWDLRNGQCQRKFLKHTKDVLAVAFSPDDRLIVSAGRDNVIRVWNVAGECMHEFLRDGHEDWVSSICFSPSLEHPIVVSGSWDNTIKVWNVNGGKCERTLKGHSNYVSTVTVSPDGSLCASGGKDGAALLWDLSTGEQLFKINVESPINQIAFSPNRFWMCVATERSLSVYDLESKAVIAELTPDGAKPSECISIAWSADGNTLYSGHKDNLIRVWSISDAE | soluble
4 | TRDFMWRLGLNLTHYKNVVTDLPLKDMPVSGVHKLAVGRSVYDFYMKKWAGVDPENGDPLWYKNVKDANNKITGRTTTNDYAQADYYYTGKSSLPKVYGGFNTAFSYKGFELSTIFAYSIGNYIVDRDVTMLWHNGSSTGRAWSTEILNRWTPENRYTDVPALKTVSNSWNANSTRNLFNNSFLRMKNITLSYNFPQPMIKKISLNSLQLFVQADNLLTVSKNQGLDPEQDISGLTYYRYPAMRSISGGINVSF | not soluble
5 | MAHHHHHHMSAGDTPVSLFLQACNQEGVKTPNPKLVEFFQSHETFDSILEIDLSNNYIGNRGLLAVLGVIEHLSCFRCLNAMDQKLYNSDFSEEAVKGNAVIDRIVEVFKVHPTANSLNLSNNPISNYAGRKLLSLAQVNRRMCLIEVSDTRIDFDLRNKIAKQCEENTRNMWDAEQDENANSCAVFGENLEWVPTQATADLTSLGAGRARRQTVRVEGIDPEAAKNYVPPVHEKSQEDTDMICKLLSHNVLFGFLGSKDILTVAGAMYREEFVKDERIIEFGQTHCDKLYVIQSGEADVIKEGQKVFVKTEGTAVGELELLYDTPAVATVKVSTEVLVAWVLDRETYRNLVMGSCIRRRETYMSMLAKVPFLQSLDAYERMQIADALTSDEFAAGDYIIHYDEEGEWLYIIIEGTVEVIGRDAAGNKTKVCEFHSGDHIGELEFLNKHRTVADIVAVTGVTTAKLNRRHFEMCMGPVMDVLKRNSTSAKYDYYQQVLQQQQQGAPAAVQ | soluble
6 | GPGSMESQKRMMWNLKGRSAVAALDPSTRHRIMQSHAMASSFHKPLLATLEVLITPQYVGGLTGPLQKPEPFICHVTRLLQITPDPSIVLAMLHQDVHKYLRVAALFIIRLIGNEAMMREAMRVGWEDYRKIRVYGYVEDLAGTIDSKENNAPDEEEGFVRAPAYGIMCVDEITDRLFNVGESDINKNGGSGNLWLGLRLPPILL | not soluble
7 | MAHHHHHHMILPRYAYAHADMDQKQMQKLLLMGPGGAGKTCMRSIIFDNYLPRDALRLGITISLDQSQVHILRNLFLNLWDCGGQHRYVTEYLNRQKEYIFRYVGVMLFVFDINSMCRDSHGGIGGLGGVGGESSSATTDWKLPEMLEYFREAMRFIRQYSPKAKVFVLLHKIDLIHKDIREEIFQARKQEILNCIDSDNGMNIEFFGTSIWSDSLYLAYSSVVRSLVPHRDVLVEMMRGIAMACDAAEVALYERSTFLCLTHINRKAAADGSKALFLQGDGELRTTEVSETVKHFKLSCMNNTTSLGGLSITTETFTALLCPFTECTHVLVVSVDPKVNVELHRLNVNAARRRFEQFLDSDEPTACAMREVL | not soluble
8 | MGHHHHHHSHMSGTEEAILGGRDSHPAAGGGSVLCFGQCQYTAEEYQAIQKALRQRLGPEYISSRMAGGGQKVCYIEGHRVINLANEMFGYNGWAHSITQQNVDFVDLNNGKFYVGVCAFVRVQLKVRGWSRPAARKDQWVVGEGWFIS | not soluble
9 | MSTHIQRSALLPYPARALFDLVNDVKRYPEFLPWCSASQVLEESESLMRAELTVAKGSLSQRFTTRNVLVPGASIEMNLENGPFTELHGVWQFKALGEKACKITLDLTFDYAGPLVKATLGPLFTQAANTMVDAFCQRAKQLYG | not soluble
10 | MLYASYMSYVSIKMHASSNGAHISGAETLVDESRAYEFLSSFYQRANTHSKGKPEITTLTIRRIKDADIITIPALEVKCLPALHPSEAHRQVIEQLSNVVSPTIAQMALHTVLNARNMRGAILLCAHTGQRLDPYDPQRGVRASTFGVTPQESAGPTLNKSHFNEALVLASKVMSAPGIVAEICISDDPAYTTGYVTTENTYIRIPHMKDPYSPIGGRVFLLDTRVSTPEDTISYLEQKPVLITGVN | not soluble
11 | MSLAATPRKLSSKEVAALVGNLMEASESTSLENGLEVRPYAFGENELNQLGDYHALRIINERFCRTARDVFLPMLRLQPRISSFPPEVRSFDDYRSSQDNFVSITASRIEELRGNQMIVIPPPFISLLTDSYYGGQIRHVPTTRTEFTATEERCIELVTDRLNVALQVAWRDLMALTFTVVSREESMQFASFVDGEDMVVNCSFMVQLPNTEPASFDILYPLQTLKPISSQLRSRMQSDFVDDDRSWREKLERAILSIPLTLSARLCEPEVPLRQLMQMQPGDVLPVHLTEALSLLVEGQPIFEAAPGERGGQAALNLTRRHVRGEGHHHHHH | soluble
12 | MAKKIVIIGAGAGGGISLSKLRRVLKDEDVDITIIDKLGRTDFQPSYIFLSIGQKRVKDLSRDFNLLNGGHVKTVKDEVVSVDAQNRIVNTLKGKYSYDYLIMSPGPDIKKDSFEGIEATDSVWTLEDSLKLRAKIKEFNGGKILISVSSQWYKCPPVPWEMALLLDDYFRKKNMRDKVEITVAHPVSKPMEMYGPGLSDPFAKMLEKRSIGGLYGKKLLGIDASKKEAVFEDDDRLRFDLSIVAPPHSPPSFIKDNEYLRSKNGWASTNLKDFRNPKYDDIFAIGDVIAPTIQIGMAGVLAHFQADTASSAIAEDIIGYPFIDYNKNAVCIIATGSSGVFSYCDLSAKLTDPSVKFPECRMIGNDPLFRFAHDLYEVNFLSSIYGNRLEHHHHHH | not soluble
13 | GPGSMLPQLLTENLCSLVEAEDRYAFSILWEFDENLNVVRDWFGKTIIRSRGALYYGDAQRMIDNPADTSDIAVSLRELMRLSKHFKAQREEDGALFLASQEFKFKVDNEHVNPTDMQVYQTFEANSMIEEWMLYANAAVATKVYESYPQWTLLRRHEPPAEGAFDTLNDALYSKLRVRLDDTTSLTLNKSLDKCEDPQDPYFNKLIRILTTRCLRQAQYFSSGG | not soluble
14 | MGSDKIHHHHHHMKQIKIGTCVPGPVAEEWLKGFVGKGFETFSLNFHMSLEGTDLDKLALSTEQILAGTDSKITTLGYYCNPIQYPEHRKTLEKVICTAEKFGATHVSTFAGAWEGKPVESAYEEFGKVFRELAELAEEKGVKLGIENCLMDGTWEHATCNIGFNPKAWEVMFEEVKNDNFGLEWEPTHQMVQLIDPVTELRKWCKKIVHVHGKDATIDWDAVRHGGISGAVPFVWHRMPGFGDTNWRDIISILRSNGYEDDICIEGYHDPVYRGELEMTGQLHALNYLKWCRGGEFTPTPWEK | not soluble
15 | LPDLRRRVLSGPLFAWFQKVLPPMSDTEREAIEAGTVWWDGELFSGRPDWQKLLDYPKAQLTEEEQAFVDGPTEELCAMVSDWDIGQRMDLPEEAWAFIKQHGFFGLIIPKEYGGKGFSAFAHSQVVMKLATRSGDLASTVMVPNSLGPAELLLHYGTDEQRQRYLPSLAKGDDIPCFALTGPYAGSDAGGMTDVGIVCKGEWEGREVLGLRLTWEKRYITLGPVATLLGLAFKCHDPDHLLGDEEDLGITLALIPTDTPGVEIGRRHVPLGAAFMNGPNSGKDVFVPLEYIIGGQEMIGKGWMMLMNCLSVGRSISLPAVGTSAGKASSYVSGRYAQVREQFNVPIAAFEGIQEALARIGGNAWLMDSARILTANAVDLGEKPSVLSAILKYHLTERGRECIAHAMDIHGGKGIIMGPNNYLGRSWQGAPIFITVEGANILSRNLMIFGQGAIRCHPYVLKEMELAQREDKDQAAREFDA | not soluble
16 | MKIEENMELPVILVTSGVLLPGASLKIPIRSKLNIQTIEKYLTRSSNDNYVVIAYKVSTDKVYEVATIAYVEKLFGWTFNSTVHYSLDVIGLHRANIDKLSLPTCIVSKVVDLNEAISNQNAIEKLVTGAKIIASNSLTDKFSREIYSLIDEKEYGKLADLCVSQMKFLGFMQLLEFLGANGTDARVEMCIKWMNEKKDANTLKLKVPNSLEASFPVDGKKRKIPNVKNQVEQLEEKLNAIEFSDEVSDRVYSELHRLKSMNAQQSEYNILMNWLELVSSLPWNTSTIDDIELHKARTILTESHEAMDDVKERVLEHLAVCKMNNSVKGMILCFTGPPGIGKTSIAKAIAESMGRKFQRVSLGGIRDESDIRGHRRTYVAAMPGRIIEALKTCKTNNPVFLLDEVDKLYSGNQGSPSAALLELLDPEQNSTFHDHYLNIPFDVSKIMFIATANDIDRLEPALRDRLEIIEMSGYSLKEKVKICENHLLTRQLTKHCISHDYVKLERQAIVAMIEEYTMEAGVRQLERNVGAICRNVALRLAEALNSDPGADVLPVMELPIQISASNIHKILKNKHMKRVKIVEKMRPLPAGVCFGLSVTTIGGRVMPIEASKSKGTGKIVTTGHLGKVLKESILVAKGWLSANSERLGLGTLEDQDIHVHLPAGAVNKDGPSAGTGLACALVSLATNIPLRSDAAVTGEISLTGHVLPIGGVKEKVLAAQREGLRRVVLPKSNEEEYLKMDEDIRLEMDVVLAETIEDVIGAMMDKSPVLAKL | not soluble
17 | MPKWGNINERRNQLHEVIRLSGMNLIIDDTDHPLIIKVASIQSARMQVYFIDNDDYFQNRLQTADENGVEYDDNDSRAIFYARGVLETVKKLRWCPDVIHCHGWMTALAPLYIKKAYKDEPSFRDAKVVFSVYEDDFKGTFNNDFASKLMLKGINKKDVATLKDPVDYATLCKLAVDYSDGIVQNSEHVNEDVMNYARQSGKLVLDYQAPDALADACNSFYDQVWEAEQK | not soluble
18 | MSGVTAIEIPQWIQDNQEDFVPPVCNKCMFSDQLKVFYVGGPNQRKDFHLEEGEEFFFQRKGDMVLKVIEKGQVRDLVIKQGEMFMLPARVEHSPQRFSNSIGLVVERERKNTEFDCVRFLVGSSNITLFERWFYLTDVVKDLPPLIKEFYGSNEFKTGKPGKGTFACNAPYEARWTDLPVPINRKEFIYDHISEVKNGPVRIYGAPEYKTEVMLLGEGSYDLESGTVELLIWLQENTFAVVEESGFTYAMKSETMVRIKPNTKCLLNVKGGFAITIRMPA | not soluble
19 | PDDVSVLAANGEKAKLSGGFFASEKALTLPDGVNQVVFRYAPYFNQGNDRLSVESDVIVARFDTANAELTIEVPKYRNMRDAEENIKDLDWKLVDGSGKAVAVDQDKLIKPGMQIGRDYVREIEDYNR | not soluble
20 | MAEVHVRELKGWEEMEEVVALQREVWGRAESDLVPRGLLVAVQDEGGLVAGAFAEGRMVGFVFGFPTKDPALHHSHMLGVLEAYRGTGAALLLKRFQRDWCLARGVRRVVWTFDPMRGVNANFNLRKLGATAKTYLPDHYGPMSGINAGAPSDRLLAEWDLLSERVYARLYAPPPEPEVAGLPQANRVEGEVPLEARLDLEAERLLFQIPEDWGRILREDPALALKWREHSRLVLPHYFARGYRLVDLVRHPNRYVLAKD | soluble
